Among the data in paper PMC6930178 are stoichiometry N values, retold here.

This experiment concerns the target HIV-1 clade C 96ZM651 gp140 Env trimer (HIV-1 clade C isolate 96ZM651). As to the kind of experiment: native gel or EMSA.

The substance “HIV-1 clade C 96ZM651 gp140 Env trimer (domain or fragment)” showed a stoichiometry N of 3.
